This note sets out measurements from the supplement of paper PMC9112550, “Optimization of the antimicrobial peptide Bac7 by deep mutational scanning” (BMC Biology, 2022).

This data set deals with Escherichia coli TOP10. The experiment in a line: shrunken log2 fold change of peptide-encoding DNA abundance (4.5 h post-induction vs induction); higher = less antimicrobial activity (less host growth inhibition). To be noted: time post-induction: 4.5 h; library: site-saturation at positions 5, 18, 19, 20.
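Also: peptides expressed intracellularly from a pBAD plasmid library in pooled LB shake-flask culture, induced with 0.3% L-arabinose, DNA abundance read by NGS, three biological replicates, DESeq2 with apeglm shrinkage.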

Consider RRIRRRPPRLPRPRPRPIHMPRP, for which the “shrunken log2 fold change” value was -0.206. As to RRIRQRPPRLPRPRPRPYFPPRP, the “shrunken log2 fold change” value is -0.283. For RRIRNRPPRLPRPRPRPYDKPRP, the “shrunken log2 fold change” value is -0.388. With RRIRRRPPRLPRPRPRPNRVPRP, the “shrunken log2 fold change” value was -0.0133. RRIRVRPPRLPRPRPRPDHAPRP: the “shrunken log2 fold change” value was determined as 0.27. As to RRIRVRPPRLPRPRPRPVLPPRP, the “shrunken log2 fold change” value amounted to 0.0268. For the sequence RRIRKRPPRLPRPRPRPGGKPRP, the “shrunken log2 fold change” value worked out at 0.123.

RRIRARPPRLPRPRPRPTQCPRP: the “shrunken log2 fold change” value amounted to 0.391.

For the sequence RRIRKRPPRLPRPRPRPIVRPRP, the “shrunken log2 fold change” value was -0.0167.

Consider RRIRVRPPRLPRPRPRPDMSPRP, for which the “shrunken log2 fold change” value was -0.0318.

Turning to RRIRFRPPRLPRPRPRPISCPRP, the “shrunken log2 fold change” value was -0.038. Consider RRIRLRPPRLPRPRPRPSQCPRP, for which the “shrunken log2 fold change” value is -0.114. The figure for RRIRYRPPRLPRPRPRPSMDPRP is -1.85; for RRIRPRPPRLPRPRPRPTLHPRP it is 0.0853; for RRIRSRPPRLPRPRPRPPKTPRP it is -0.0288. Regarding RRIRNRPPRLPRPRPRPNNIPRP, the “shrunken log2 fold change” value was -0.551. RRIRHRPPRLPRPRPRPIAKPRP: the “shrunken log2 fold change” value was found to be 0.05.

For RRIRARPPRLPRPRPRPFVHPRP, the “shrunken log2 fold change” value is -0.207. As to RRIRFRPPRLPRPRPRPKLVPRP, the “shrunken log2 fold change” value came out at 0.147. Turning to RRIRMRPPRLPRPRPRPFIIPRP, the “shrunken log2 fold change” value was -0.268.

Take RRIRLRPPRLPRPRPRPWETPRP: the “shrunken log2 fold change” value was 0.0162. For RRIRFRPPRLPRPRPRPTQYPRP, the “shrunken log2 fold change” value is -0.261. Consider RRIRERPPRLPRPRPRPCKPPRP, for which the “shrunken log2 fold change” value worked out at 0.0172. In the case of RRIRQRPPRLPRPRPRPMYMPRP, the “shrunken log2 fold change” value is -0.0317. Regarding RRIRQRPPRLPRPRPRPYSYPRP, the “shrunken log2 fold change” value is -0.337. On to RRIRCRPPRLPRPRPRPVGFPRP, for which the “shrunken log2 fold change” value amounted to 0.0344. With RRIRPRPPRLPRPRPRPNKVPRP, the “shrunken log2 fold change” value was -0.1.

For the sequence RRIRLRPPRLPRPRPRPGPQPRP, the “shrunken log2 fold change” value was 0.228. For the sequence RRIRARPPRLPRPRPRPQQGPRP, the “shrunken log2 fold change” value was -0.0917. RRIRCRPPRLPRPRPRPYQDPRP: the “shrunken log2 fold change” value is -0.725.

Turning to RRIRTRPPRLPRPRPRPSAWPRP, the “shrunken log2 fold change” value stood at 0.0388.

Consider RRIRHRPPRLPRPRPRPPWDPRP, for which the “shrunken log2 fold change” value was determined as 0.131. Take RRIRWRPPRLPRPRPRPIDYPRP: the “shrunken log2 fold change” value is -0.235.

On to RRIRTRPPRLPRPRPRPWVNPRP, for which the “shrunken log2 fold change” value is -0.208. For the sequence RRIRKRPPRLPRPRPRPDFAPRP, the “shrunken log2 fold change” value is -0.033. Regarding RRIRARPPRLPRPRPRPAVVPRP, the “shrunken log2 fold change” value came out at 0.16. For the sequence RRIRLRPPRLPRPRPRPCDYPRP, the “shrunken log2 fold change” value was -0.191. In the case of RRIRQRPPRLPRPRPRPWSNPRP, the “shrunken log2 fold change” value was -0.00145. The value for RRIRRRPPRLPRPRPRPCWYPRP was -0.112; that for RRIRSRPPRLPRPRPRPFKFPRP was -0.438.

With RRIRNRPPRLPRPRPRPKHFPRP, the “shrunken log2 fold change” value stood at 0.054. In the case of RRIRTRPPRLPRPRPRPRIKPRP, the “shrunken log2 fold change” value is -0.208. Turning to RRIRRRPPRLPRPRPRPHEEPRP, the “shrunken log2 fold change” value turned out to be 0.0957. On to RRIRKRPPRLPRPRPRPPQVPRP, for which the “shrunken log2 fold change” value was 0.00672. The value for RRIRTRPPRLPRPRPRPKMHPRP was -0.0762. The value for RRIRARPPRLPRPRPRPHAGPRP was 0.122; that for RRIRKRPPRLPRPRPRPQRWPRP was 0.0222; that for RRIRSRPPRLPRPRPRPDSQPRP was -0.267. With RRIRWRPPRLPRPRPRPVACPRP, the “shrunken log2 fold change” value is -0.052.

Regarding RRIRHRPPRLPRPRPRPWMRPRP, the “shrunken log2 fold change” value was determined as 0.101.

As to RRIRVRPPRLPRPRPRPMAVPRP, the “shrunken log2 fold change” value was -0.0191. In the case of RRIRQRPPRLPRPRPRPINRPRP, the “shrunken log2 fold change” value was -0.341.

On to RRIRTRPPRLPRPRPRPVQVPRP, for which the “shrunken log2 fold change” value turned out to be 0.0995.

Consider RRIRPRPPRLPRPRPRPSMRPRP, for which the “shrunken log2 fold change” value is 0.501. Turning to RRIRKRPPRLPRPRPRPAGDPRP, the “shrunken log2 fold change” value came to 0.646. The value for RRIRARPPRLPRPRPRPWIFPRP was -0.114. The value for RRIRQRPPRLPRPRPRPALCPRP was 0.171. Take RRIRARPPRLPRPRPRPFKNPRP: the “shrunken log2 fold change” value is -0.193. RRIRVRPPRLPRPRPRPQALPRP: the “shrunken log2 fold change” value was -0.000718. Turning to RRIRCRPPRLPRPRPRPERVPRP, the “shrunken log2 fold change” value worked out at 0.361. The value for RRIRTRPPRLPRPRPRPNGNPRP was -0.302; that for RRIRRRPPRLPRPRPRPCCKPRP was -0.0824.

Regarding RRIRRRPPRLPRPRPRPIMKPRP, the “shrunken log2 fold change” value is -0.0396. The value for RRIRCRPPRLPRPRPRPEWLPRP was 0.479; that for RRIRNRPPRLPRPRPRPYTAPRP was -0.502. Consider RRIRMRPPRLPRPRPRPRSCPRP, for which the “shrunken log2 fold change” value was 0.274.

As for RRIRSRPPRLPRPRPRPYESPRP, the “shrunken log2 fold change” value was -0.26. On to RRIRPRPPRLPRPRPRPPPHPRP, for which the “shrunken log2 fold change” value was 0.657. RRIRLRPPRLPRPRPRPFAEPRP: the “shrunken log2 fold change” value came out at 0.102.

On to RRIRERPPRLPRPRPRPSHYPRP, for which the “shrunken log2 fold change” value is -0.611.

As for RRIRLRPPRLPRPRPRPRDCPRP, the “shrunken log2 fold change” value is -0.0082. In the case of RRIRPRPPRLPRPRPRPCVCPRP, the “shrunken log2 fold change” value was determined as 0.0289. With RRIRVRPPRLPRPRPRPGAAPRP, the “shrunken log2 fold change” value was found to be 0.653.

As for RRIRNRPPRLPRPRPRPKSDPRP, the “shrunken log2 fold change” value is -0.168. In the case of RRIRYRPPRLPRPRPRPYDAPRP, the “shrunken log2 fold change” value is -0.129. The value for RRIRCRPPRLPRPRPRPFCIPRP was -0.571; that for RRIRVRPPRLPRPRPRPTGRPRP was 0.274. With RRIRYRPPRLPRPRPRPIHHPRP, the “shrunken log2 fold change” value was -1.62. With RRIRWRPPRLPRPRPRPLQHPRP, the “shrunken log2 fold change” value was found to be 0.394. Consider RRIRHRPPRLPRPRPRPVWTPRP, for which the “shrunken log2 fold change” value is -0.225.

On to RRIRHRPPRLPRPRPRPCATPRP, for which the “shrunken log2 fold change” value came to 0.0959. The figure for RRIRHRPPRLPRPRPRPPVMPRP is -0.0747.

As to RRIRSRPPRLPRPRPRPMDYPRP, the “shrunken log2 fold change” value turned out to be 0.0691. For RRIRARPPRLPRPRPRPTCRPRP, the “shrunken log2 fold change” value is 0.592. Consider RRIRGRPPRLPRPRPRPAWAPRP, for which the “shrunken log2 fold change” value came to 0.854. The value for RRIRHRPPRLPRPRPRPEELPRP was -0.00776; that for RRIRCRPPRLPRPRPRPPTPPRP was 0.776. The value for RRIRNRPPRLPRPRPRPQYSPRP was -0.232.

Take RRIRCRPPRLPRPRPRPEIKPRP: the “shrunken log2 fold change” value worked out at 0.0171. The figure for RRIRDRPPRLPRPRPRPRIEPRP is 0.119; for RRIRMRPPRLPRPRPRPDKWPRP it is 0.934; for RRIRRRPPRLPRPRPRPMFVPRP it is -0.0498. Turning to RRIRVRPPRLPRPRPRPHMFPRP, the “shrunken log2 fold change” value was -0.199. The value for RRIRRRPPRLPRPRPRPNYTPRP was -0.44. Turning to RRIRVRPPRLPRPRPRPCCVPRP, the “shrunken log2 fold change” value is -0.146. In the case of RRIRKRPPRLPRPRPRPHMIPRP, the “shrunken log2 fold change” value was -0.335. Consider RRIRCRPPRLPRPRPRPSVIPRP, for which the “shrunken log2 fold change” value is -0.0544.

For RRIRHRPPRLPRPRPRPQKQPRP, the “shrunken log2 fold change” value worked out at 0.219. In the case of RRIRHRPPRLPRPRPRPNMEPRP, the “shrunken log2 fold change” value is -0.0709.

As for RRIRYRPPRLPRPRPRPVSQPRP, the “shrunken log2 fold change” value was -0.303. In the case of RRIRMRPPRLPRPRPRPGVYPRP, the “shrunken log2 fold change” value stood at 0.104. Turning to RRIRCRPPRLPRPRPRPSVGPRP, the “shrunken log2 fold change” value stood at 0.0128.

On to RRIRYRPPRLPRPRPRPEDPPRP, for which the “shrunken log2 fold change” value was -0.0591.

As for RRIRMRPPRLPRPRPRPASRPRP, the “shrunken log2 fold change” value turned out to be 0.201.

RRIRFRPPRLPRPRPRPMLIPRP: the “shrunken log2 fold change” value is -0.217.

On to RRIRFRPPRLPRPRPRPMMKPRP, for which the “shrunken log2 fold change” value was -0.0975. In the case of RRIRDRPPRLPRPRPRPPIYPRP, the “shrunken log2 fold change” value is -0.242. Take RRIRIRPPRLPRPRPRPMNMPRP: the “shrunken log2 fold change” value was -0.375. Take RRIRIRPPRLPRPRPRPSEEPRP: the “shrunken log2 fold change” value was -0.188. Turning to RRIRSRPPRLPRPRPRPRGEPRP, the “shrunken log2 fold change” value was 0.754. On to RRIRRRPPRLPRPRPRPEPLPRP, for which the “shrunken log2 fold change” value stood at 0.137. RRIRWRPPRLPRPRPRPVWWPRP: the “shrunken log2 fold change” value is 0.729. For the sequence RRIRHRPPRLPRPRPRPKKNPRP, the “shrunken log2 fold change” value was -0.14. As to RRIRFRPPRLPRPRPRPKYEPRP, the “shrunken log2 fold change” value was -0.063. As for RRIRRRPPRLPRPRPRPLNAPRP, the “shrunken log2 fold change” value was determined as 0.257. Turning to RRIRYRPPRLPRPRPRPTLFPRP, the “shrunken log2 fold change” value was -0.145. As for RRIRERPPRLPRPRPRPSDHPRP, the “shrunken log2 fold change” value is -0.133. Regarding RRIRMRPPRLPRPRPRPQRWPRP, the “shrunken log2 fold change” value came out at 0.637. Take RRIRMRPPRLPRPRPRPLIHPRP: the “shrunken log2 fold change” value was -0.207. As for RRIRMRPPRLPRPRPRPPMSPRP, the “shrunken log2 fold change” value is -0.114. For RRIRGRPPRLPRPRPRPAIYPRP, the “shrunken log2 fold change” value was determined as 0.302. Take RRIRCRPPRLPRPRPRPDTRPRP: the “shrunken log2 fold change” value was -0.0118. As for RRIRTRPPRLPRPRPRPGIWPRP, the “shrunken log2 fold change” value is -0.0153. For the sequence RRIRSRPPRLPRPRPRPIYRPRP, the “shrunken log2 fold change” value worked out at 0.0394. For the sequence RRIRRRPPRLPRPRPRPWRIPRP, the “shrunken log2 fold change” value is 0.0818.
